Experimental data taken from paper PMC7547064, “High-resolution cryo-EM structure of urease from the pathogen Yersinia enterocolitica” (Nature Communications, 2020).

B2: Yersinia enterocolitica urease ureC protein (enzyme)
chain: MPQISRQEYAGLFGPTTGDKIRLGDTNLFIEIEKDLRGYGEESVYGGGKSLRDGMGANNHLTRDNGVLDLVITNVTIVDARLGVIKADVGIRDGKIAGIGKSGNPGVMDGVTPGMVVGVSTDAISGEHLILTAAGIDSHIHLISPQQAYHALSNGVATFFGGGIGPTDGTNGTTVTPGPWNIRQMLRSVEGLPVNVGILGKGNSYGRGPLLEQAIAGVVGYKVHEDWGATANALRHSLRMADEMDIQVSVHTDSLNECGYVEDTIDAFEGRTIHTFHTEGAGGGHAPDIIRVASQPNVLPSSTNPTLPYGVNSQAELFDMIMVCHNLNPNVPADVSFAESRVRPETIAAENVLHDMGVISMFSSDSQAMGRVGENWLRVMQTANAMKASRGKLPEDAPGNDNFRVLRYVAKITINPAIAQGVSHVIGSVEVGKMADLVLWDPRFFGAKPKMVIKGGMINWAAMGDPNASLPTPQPVFYRPMFGAMGKTMQDTCVTFVSQAALDDGVKEKAGLDRQVIAVKNCRTISKHDLVRNDQTPNIEVDPETFAVKVDGVHATCEPIDTAAMNQRYFFG
modifications: carbamylated Lys222
notes: urease chain ureC of Yersinia enterocolitica; residues 2-327 and 335-572 were built in the cryo-EM model; Native enzyme purified from the bacterium, with two Ni2+ ions in the active site; also called α-subunit containing the active site; source: purified from Y. enterocolitica cultures (Sephacryl S-300, Mono Q, SEC)

Key:
[1] = molecular target: B2; experiment: cryo-EM structure; single-particle cryo-EM of purified urease at 0.39 mg/ml, frozen in a buffer of pH 7.0; tetrahedral (T) symmetry imposed; map at 1.98 Å; no substrate or inhibitor; details: both partners purified
[2] = molecular target: the molecule itself; experiment: as above

B1: Yersinia enterocolitica urease ureA protein (natural protein)
chain: MQLTPREVEKLMIYTLSDVAFKRKARGLKLNYPEAVSIITETAMEGARDGKSVEDVMKEASKVLTKDDVMDGVADLIPNVQVEAIFTDGSRLVTVHDPIK
notes: urease chain ureA of Yersinia enterocolitica; all residues of ureA (1-100) were built in the cryo-EM model; Native enzyme purified from the bacterium; source: purified from Y. enterocolitica cultures (Sephacryl S-300, Mono Q, SEC)
- binding result [1]: binds
- binding result [2]: binds

Binder: B2
- binding result [2]: binds

B3: Y. enterocolitica urease hetero-trimer formed by the three protein chains (ureA, ureB, ureC) (complex)
chain 1: MQLTPREVEKLMIYTLSDVAFKRKARGLKLNYPEAVSIITETAMEGARDGKSVEDVMKEASKVLTKDDVMDGVADLIPNVQVEAIFTDGSRLVTVHDPIK
chain 2: MSTKTNSTKATSEKTDSLKTNRGTKSSAGYSDQNIPLGGCILADTPITFNENKPVTKVKVRNTGDRPIQVGSHFHFFEANRALEFDRAAAYGKRLNISSTTAIRFEPGDETEVPLIPFGGKQTLYGFNNLVDGWTGEGVVPNSERPDKLEAIRRAAERGFKSSK
chain 3: MPQISRQEYAGLFGPTTGDKIRLGDTNLFIEIEKDLRGYGEESVYGGGKSLRDGMGANNHLTRDNGVLDLVITNVTIVDARLGVIKADVGIRDGKIAGIGKSGNPGVMDGVTPGMVVGVSTDAISGEHLILTAAGIDSHIHLISPQQAYHALSNGVATFFGGGIGPTDGTNGTTVTPGPWNIRQMLRSVEGLPVNVGILGKGNSYGRGPLLEQAIAGVVGYKVHEDWGATANALRHSLRMADEMDIQVSVHTDSLNECGYVEDTIDAFEGRTIHTFHTEGAGGGHAPDIIRVASQPNVLPSSTNPTLPYGVNSQAELFDMIMVCHNLNPNVPADVSFAESRVRPETIAAENVLHDMGVISMFSSDSQAMGRVGENWLRVMQTANAMKASRGKLPEDAPGNDNFRVLRYVAKITINPAIAQGVSHVIGSVEVGKMADLVLWDPRFFGAKPKMVIKGGMINWAAMGDPNASLPTPQPVFYRPMFGAMGKTMQDTCVTFVSQAALDDGVKEKAGLDRQVIAVKNCRTISKHDLVRNDQTPNIEVDPETFAVKVDGVHATCEPIDTAAMNQRYFFG
modifications: carbamylated Lys222
notes: urease chain ureA of Yersinia enterocolitica, as m1; residues 1-100 built; urease chain ureB of Yersinia enterocolitica, as m2; residues 31-162 built; urease chain ureC of Yersinia enterocolitica, as m3; residues 2-327 and 335-572 built; The asymmetric unit holds one copy each of ureA, ureB and ureC; Twelve such units form the holoenzyme, [[αβγ]3]4, with tetrahedral symmetry; also called basic …
- stoichiometry N [2]: 12

B4: Yersinia enterocolitica urease ureB protein (natural protein)
chain: MSTKTNSTKATSEKTDSLKTNRGTKSSAGYSDQNIPLGGCILADTPITFNENKPVTKVKVRNTGDRPIQVGSHFHFFEANRALEFDRAAAYGKRLNISSTTAIRFEPGDETEVPLIPFGGKQTLYGFNNLVDGWTGEGVVPNSERPDKLEAIRRAAERGFKSSK
notes: urease chain ureB of Yersinia enterocolitica; residues 31-162 were built in the cryo-EM model; the N-terminal extension was too disordered to be modelled; Native enzyme purified from the bacterium; source: purified from Y. enterocolitica cultures (Sephacryl S-300, Mono Q, SEC)
- binding result [1]: binds
- binding result [2]: binds
